Results as given in patent publication US20150376296A1 (Memorial Sloan Kettering, published 2015).

Each binder was assayed against human prostate-specific membrane antigen (PSMA) (human, UniProt Q04609 1-750) (assay: cell-based or functional assay).
Sequence of human prostate-specific membrane antigen (PSMA) (Q04609 whole entry): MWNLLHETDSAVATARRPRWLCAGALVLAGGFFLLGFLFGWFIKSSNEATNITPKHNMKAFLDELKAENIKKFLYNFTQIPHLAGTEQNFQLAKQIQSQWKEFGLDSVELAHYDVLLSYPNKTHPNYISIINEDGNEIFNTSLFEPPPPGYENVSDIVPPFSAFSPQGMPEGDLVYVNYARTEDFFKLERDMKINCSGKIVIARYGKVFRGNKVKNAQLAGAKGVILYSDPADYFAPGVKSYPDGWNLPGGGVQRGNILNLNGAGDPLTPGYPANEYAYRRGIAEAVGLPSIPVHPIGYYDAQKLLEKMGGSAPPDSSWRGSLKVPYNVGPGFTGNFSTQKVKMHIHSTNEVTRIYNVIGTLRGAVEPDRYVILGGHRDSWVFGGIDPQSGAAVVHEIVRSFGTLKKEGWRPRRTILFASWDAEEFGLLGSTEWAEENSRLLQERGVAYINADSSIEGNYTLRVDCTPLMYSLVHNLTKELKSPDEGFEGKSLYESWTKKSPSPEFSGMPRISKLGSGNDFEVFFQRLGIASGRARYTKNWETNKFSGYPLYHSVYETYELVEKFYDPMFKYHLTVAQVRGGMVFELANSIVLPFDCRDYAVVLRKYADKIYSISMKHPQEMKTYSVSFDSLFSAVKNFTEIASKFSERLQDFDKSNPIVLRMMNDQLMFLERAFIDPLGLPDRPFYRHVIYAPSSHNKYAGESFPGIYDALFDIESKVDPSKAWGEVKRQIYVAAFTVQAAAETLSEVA

Row | cytokine levels of 19-28z/iCAR T cells on CD19+PSMA+ off-target versus CD19+ target AAPCs, inhibition [%] | Binder
1 | 30 | 2B4 iCAR-P (PSMA-specific inhibitory chimeric antigen receptor with 2B4 intracellular domain) (receptor) EVQLQQSGPELVKPGTSVRISCKTSGYTFTEYTIHWVKQSHGKSLEWIGNINPNNGGTTYNQKFEDKATLTVDKSSSTAYMELRSLTSEDSAVYYCAAGWNFDYWGQGTTVTVSSGGGGSGGGGSGGGGSDIVMTQSHKFMSTSVGDRVSIICKASQDVGTAVDWYQQKPGQSPKLLIYWASTRHTGVPDRFTGSGSGTDFTLTITNVQSEDLADYFCQQYNSYPLTFGAGTMLDLKRAAAQDCQNAHQEFRFWPFLVIIVILSALFLGTLACFCVWRRKRKEKQSETSPKEFLTIYEDVKDLKTRRNHEQEQTFPGGGSTIYSMIQSQSSAPTSQEPAYTLYSLIQPSRKSGSRKRNHSPSFNSTIYEVIGKSQPKAQNPARLSRKELENFDVYS
2 | 30 | BTLA iCAR-P (PSMA-specific inhibitory chimeric antigen receptor with BTLA intracellular domain) (receptor) EVQLQQSGPELVKPGTSVRISCKTSGYTFTEYTIHWVKQSHGKSLEWIGNINPNNGGTTYNQKFEDKATLTVDKSSSTAYMELRSLTSEDSAVYYCAAGWNFDYWGQGTTVTVSSGGGGSGGGGSGGGGSDIVMTQSHKFMSTSVGDRVSIICKASQDVGTAVDWYQQKPGQSPKLLIYWASTRHTGVPDRFTGSGSGTDFTLTITNVQSEDLADYFCQQYNSYPLTFGAGTMLDLKRAAADVKSASERPSKDEMASRPWLLYSLLPLGGLPLLITTCFCLFCCLRRHQGKQNELSDTAGREINLVDAHLKSEQTEASTRQNSQVLLSETGIYDNDPDLCFRMQEGSEVYSNPCLEENKPGIVYASLNHSVIGPNSRLARNVKEAPTEYASICVRS
3 | 30 | LAG-3 iCAR-P (PSMA-specific inhibitory chimeric antigen receptor with LAG-3 intracellular domain) (receptor) EVQLQQSGPELVKPGTSVRISCKTSGYTFTEYTIHWVKQSHGKSLEWIGNINPNNGGTTYNQKFEDKATLTVDKSSSTAYMELRSLTSEDSAVYYCAAGWNFDYWGQGTTVTVSSGGGGSGGGGSGGGGSDIVMTQSHKFMSTSVGDRVSIICKASQDVGTAVDWYQQKPGQSPKLLIYWASTRHTGVPDRFTGSGSGTDFTLTITNVQSEDLADYFCQQYNSYPLTFGAGTMLDLKRAAALGAAVYFTELSSPGAQRSGRAPGALPAGHLLLFLILGVLSLLLLVTGAFGFHLWRRQWRPRRFSALEQGIHPPQAQSKIEELEQEPEPEPEPEPEPEPEPEPEQL
